Laboratory results published in patent US20260274981A1 (VIB VZW, published 2026).

Target: T1, recombinant human TfR (2474-TR, R&D Systems), biotinylated (human, UniProt P02786 89-760, biotinylated with EZ-Link NHS-PEG4-Biotinylation Kit)
T1 construct: Bought protein; also called immobilized recombinant human TfR; biotinylated human TfR
Assay: SPR (Biacore T200), biotinylated human TfR captured on an SA chip as ligand, VHH as analyte, single cycle kinetics, 1:1 binding model
Source text: Phage libraries generated after 4 biweekly immunizations of two different camelids, underwent two rounds of pannings on CHO cell lines overexpressing either cynomolgus TfR in the first round or human TfR in the second round. Output libraries were screened with flow cytometry to find binders to human TfR overexpressing cells (FIG. 1A). […] Binding kinetics to recombinant human and cynomolgus TfR were further characterized with Surface Plasmon Resonance (SPR).
Surface Plasmon Resonance (SPR) was used to measure the interaction between VHHs and human or cynomolgus TfR receptor. Human TfR (2474-TR, R&D Systems) and cynomolgus TfR (90253-C07H, Sino Biological) were biotinylated with the EZ-Link NHS-PEG4-Biotinylation Kit (ThermoFischer Scientific) according to the manufacturer instructions. The binding experiments were performed at 25° C. on a Biacore T200 instrument (Cytiva, Uppsala, Sweden) in HBS-EP+ buffer (10 mM HEPES, 150 mM NaCl, 3 mM EDTA and 0.05% v/v Surfactant P20). Biotinylated human TfR and cynomolgus TfR were captured on a SA sensor chip (Cytiva) at a density of around 250 RU. Increasing concentrations of VHHs were sequentially injected in one single cycle at a flow rate of 30 μl/min. The dissociation was monitored for 20 min. […] A reference flow was used as a control for non-specific binding and refractive index changes. Several buffer blanks were used for double referencing. Binding affinities (KD) and kinetic rate constants (kₒₙ, koff) were derived after fitting the experimental data to the 1:1 binding model with the Biacore T200 Evaluation Software 3.1 using the single cycle kinetic procedure. Each interaction was repeated a least three times.

koff	kon	Binder
0.0137 s⁻¹	15000 M⁻¹ s⁻¹	BBB00515 (VHH, Lead VHH expressed in E. coli TG1 and purified by IMAC; detected with anti-FLAG antibody in flow cytometry; also called BBB00515 VHH; not shown: C-terminal 3xFlag/6xHis tag from expression vector pBDS119) VHH: QVQLQESGGGLVQAGGSLRLSCAASGSIFSINAMGWYRQAPGKQRELVAVITSGGSTIYADSVKGRFTISRDNAENTVYLQMNSLKPEDTAVYYCNAHVGLKVPTIQELSLGFGSWGQGTQVTVSS
0.00592 s⁻¹	29000 M⁻¹ s⁻¹	BBB00533 (VHH, Lead VHH expressed in E. coli TG1 and purified by IMAC; detected with anti-FLAG antibody in flow cytometry; also called BBB00533 VHH; not shown: C-terminal 3xFlag/6xHis tag from expression vector pBDS119) VHH: QVQLQESGGGSVQPGGSLRLSCTASGRTFNYAMGWFRQAPGKNREFVATIDWKDGSSYYLDSVRGRFTIERDDAKNTVYLQMNSLKPEDAAVYTCAVGDGDYCSTYTCAAEVEYDYWGQGTQVTVSS
